Measured values taken from the supplement of paper PMC9112550, “Optimization of the antimicrobial peptide Bac7 by deep mutational scanning” (BMC Biology, 2022).

What follows are sequences tested on Escherichia coli TOP10 (assay: shrunken log2 fold change of peptide-encoding DNA abundance (4.5 h post-induction vs induction); higher = less antimicrobial activity (less host growth inhibition)). Conditions: time post-induction: 4.5 h; library: site-saturation at positions 5, 18, 19, 20.
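Further: peptides expressed intracellularly from a pBAD plasmid library in pooled LB shake-flask culture, induced with 0.3% L-arabinose, DNA abundance read by NGS, three biological replicates, DESeq2 with apeglm shrinkage.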

Row | Sequence | shrunken log2 fold change
1 | RRIRIRPPRLPRPRPRPWEEPRP | -0.04
2 | RRIRIRPPRLPRPRPRPWFIPRP | -0.243
3 | RRIRIRPPRLPRPRPRPWFMPRP | -0.503
4 | RRIRIRPPRLPRPRPRPWFPPRP | -0.349
5 | RRIRIRPPRLPRPRPRPWGCPRP | -0.307
6 | RRIRIRPPRLPRPRPRPWGPPRP | 0.102
7 | RRIRIRPPRLPRPRPRPWGRPRP | -0.239
8 | RRIRIRPPRLPRPRPRPWHMPRP | -0.0375
9 | RRIRIRPPRLPRPRPRPWIGPRP | -0.0616
10 | RRIRIRPPRLPRPRPRPWIQPRP | -0.318
11 | RRIRIRPPRLPRPRPRPWKIPRP | -0.0311
12 | RRIRIRPPRLPRPRPRPWKQPRP | -0.00674
13 | RRIRIRPPRLPRPRPRPWKYPRP | -0.254
14 | RRIRIRPPRLPRPRPRPWLWPRP | -0.0533
15 | RRIRIRPPRLPRPRPRPWMHPRP | 0.0105
16 | RRIRIRPPRLPRPRPRPWMVPRP | -0.619
17 | RRIRIRPPRLPRPRPRPWNAPRP | 0.0267
18 | RRIRIRPPRLPRPRPRPWNYPRP | 0.0299
19 | RRIRIRPPRLPRPRPRPWRTPRP | -1.03
20 | RRIRIRPPRLPRPRPRPWSFPRP | -0.0245
21 | RRIRIRPPRLPRPRPRPWSHPRP | -0.416
22 | RRIRIRPPRLPRPRPRPWYDPRP | -0.0891
23 | RRIRIRPPRLPRPRPRPWYNPRP | -0.343
24 | RRIRIRPPRLPRPRPRPWYPPRP | -0.238
25 | RRIRIRPPRLPRPRPRPWYQPRP | 0.00187

Row | Sequence | shrunken log2 fold change
26 | RRIRIRPPRLPRPRPRPYALPRP | -0.0961
27 | RRIRIRPPRLPRPRPRPYCPPRP | -0.175
28 | RRIRIRPPRLPRPRPRPYCQPRP | -1.1
29 | RRIRIRPPRLPRPRPRPYCVPRP | -0.207
30 | RRIRIRPPRLPRPRPRPYDEPRP | -0.338
31 | RRIRIRPPRLPRPRPRPYDKPRP | -0.224
32 | RRIRIRPPRLPRPRPRPYEVPRP | -0.248
33 | RRIRIRPPRLPRPRPRPYFCPRP | -1.26
34 | RRIRIRPPRLPRPRPRPYGKPRP | -0.108
35 | RRIRIRPPRLPRPRPRPYGMPRP | -0.354
36 | RRIRIRPPRLPRPRPRPYGPPRP | -1.06
37 | RRIRIRPPRLPRPRPRPYHIPRP | -0.0511
38 | RRIRIRPPRLPRPRPRPYIPPRP | -0.92
39 | RRIRIRPPRLPRPRPRPYKQPRP | -0.101
40 | RRIRIRPPRLPRPRPRPYLYPRP | -0.544
41 | RRIRIRPPRLPRPRPRPYMYPRP | -0.91
42 | RRIRIRPPRLPRPRPRPYNVPRP | -0.291
43 | RRIRIRPPRLPRPRPRPYQTPRP | -0.0792
44 | RRIRIRPPRLPRPRPRPYRLPRP | 0.00643
45 | RRIRIRPPRLPRPRPRPYRVPRP | -0.0849
46 | RRIRIRPPRLPRPRPRPYVPPRP | -0.212
47 | RRIRIRPPRLPRPRPRPYWCPRP | 0.0219
48 | RRIRIRPPRLPRPRPRPYYDPRP | -0.0728
49 | RRIRIRPPRLPRPRPRPYYIPRP | -0.552
50 | RRIRIRPPRLPRPRPRPYYKPRP | -1.01

Row | Sequence | shrunken log2 fold change
51 | RRIRKRPPRLPRPRPRPACMPRP | 0.605
52 | RRIRKRPPRLPRPRPRPAGTPRP | 0.992
53 | RRIRKRPPRLPRPRPRPAIEPRP | 0.018
54 | RRIRKRPPRLPRPRPRPAIRPRP | -0.29
55 | RRIRKRPPRLPRPRPRPAKSPRP | 0.254
56 | RRIRKRPPRLPRPRPRPALIPRP | 0.2
57 | RRIRKRPPRLPRPRPRPALVPRP | 0.623
58 | RRIRKRPPRLPRPRPRPAMFPRP | 0.337
59 | RRIRKRPPRLPRPRPRPAMMPRP | 1.24
60 | RRIRKRPPRLPRPRPRPAMSPRP | -0.146
61 | RRIRKRPPRLPRPRPRPANAPRP | 0.426
62 | RRIRKRPPRLPRPRPRPANCPRP | 0.0966
63 | RRIRKRPPRLPRPRPRPANFPRP | -0.0479
64 | RRIRKRPPRLPRPRPRPANHPRP | -0.235
65 | RRIRKRPPRLPRPRPRPANTPRP | -0.0533
66 | RRIRKRPPRLPRPRPRPAPFPRP | 0.659
67 | RRIRKRPPRLPRPRPRPAPPPRP | 1.04
68 | RRIRKRPPRLPRPRPRPAQHPRP | 0.65
69 | RRIRKRPPRLPRPRPRPARCPRP | 0.782
70 | RRIRKRPPRLPRPRPRPARRPRP | 0.888
71 | RRIRKRPPRLPRPRPRPASSPRP | 0.0469
72 | RRIRKRPPRLPRPRPRPASTPRP | 0.53
73 | RRIRKRPPRLPRPRPRPATGPRP | 0.145
74 | RRIRKRPPRLPRPRPRPATIPRP | 0.00392
75 | RRIRKRPPRLPRPRPRPAVAPRP | 0.0118
